{"source": "paper PMC9712992", "target": "D76N-β2-microglobulin (UniProt P61769)", "sequence (P61769 other isoform, or with tags, fused parts or gaps D76N | D76N)": "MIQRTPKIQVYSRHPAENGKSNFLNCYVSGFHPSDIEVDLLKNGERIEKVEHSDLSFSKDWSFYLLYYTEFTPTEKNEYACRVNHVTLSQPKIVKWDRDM"}
{"substance": "crosslinked dimers (XL-Ds) of D76N-β2m/S57C (from UniProt P61769 21-119) (complex)", "values": [{"measurement": "ThT fluorescence kinetics of seeded fibril growth of 20 μM D76N-β2m with 3% or 10% (w/w) fibril seeds and 10% (w/w) XL-Ds: fold increase in T (half)", "value": 1.6, "unit": "fold"}]}
